{"source": "patent EP1783227A1", "molecular_target": "human CCR2 (endogenous, on THP-1 cells, THP-1 cell membranes, PBMC and whole blood leukocytes) (human) (UniProt P41597)", "sequence (P41597 whole entry)": "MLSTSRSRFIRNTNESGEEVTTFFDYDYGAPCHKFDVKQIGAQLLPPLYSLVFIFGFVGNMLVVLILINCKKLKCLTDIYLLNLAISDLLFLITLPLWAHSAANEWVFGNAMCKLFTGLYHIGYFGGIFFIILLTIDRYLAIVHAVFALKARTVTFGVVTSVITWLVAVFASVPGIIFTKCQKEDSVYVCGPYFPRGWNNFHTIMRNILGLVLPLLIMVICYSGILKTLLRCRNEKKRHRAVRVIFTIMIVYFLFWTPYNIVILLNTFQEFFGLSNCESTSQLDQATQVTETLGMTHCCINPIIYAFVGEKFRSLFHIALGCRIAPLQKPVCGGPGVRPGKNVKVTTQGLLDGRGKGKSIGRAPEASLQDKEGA", "test": "competition with 0.1 nM [125I]MCP-1 on fresh PBMC (500,000 cells), filtration and scintillation counting", "note": "Several values for one entry are separate records, joined by “and”; a condition that tells them apart may be missing. Equal entries are not always repeated."}
{"substance": "murine monoclonal antibody LS132.1D9", "values": [{"measurement": "IC50", "value": "0.2 nM and 0.04 µg/mL"}]}
